Reference: patent US20260139055A1

Target: canine FcRn complex (FcRn-alpha subunit and beta-microglobulin), His-tagged, biotin labeled (canine)
Assay: SPR (Biacore), biotin-FcRn captured on SA surface, IgG flowed over, pH 6, 15 C

Kd [nM] | Binder
7.04 | canine IgGB (65) mAb with mutation T286K (antibody, part only; not given: Variable domains, not shown: another chain or arm of the molecule) constant: ASTTAPSVFPLAPSCGSTSGSTVALACLVSGYFPEPVTVSWNSGSLTSGVHTFPSVLQSSGLYSLSSMVTVPSSRWPSETFTCNVAHPASKTKVDKPVPKRENGRVPRPPDCPKCPAPEMLGGPSVFIFPPKPKDTLLIARTPEVTCVVVDLDPEDPEVQISWFVDGKQMQKAKTQPREEQFNGTYRVVSVLPIGHQDWLKGKQFTCKVNNKALPSPIERTISKARGQAHQPSVYVLPPSREELSKNTVSLTCLIKDFFPPDIDVEWQSNGQQEPESKYRTTPPQLDEDGSYFLYSKLSVDKSRWQRGDTFICAVMHEALHNHYTQESLSHSPGK
3.87 | canine IgGB (65) mAb with mutation Y436W (antibody, part only; not given: variable domains of unnamed mAb, not shown: another chain or arm of the molecule) constant: ASTTAPSVFPLAPSCGSTSGSTVALACLVSGYFPEPVTVSWNSGSLTSGVHTFPSVLQSSGLYSLSSMVTVPSSRWPSETFTCNVAHPASKTKVDKPVPKRENGRVPRPPDCPKCPAPEMLGGPSVFIFPPKPKDTLLIARTPEVTCVVVDLDPEDPEVQISWFVDGKQMQTAKTQPREEQFNGTYRVVSVLPIGHQDWLKGKQFTCKVNNKALPSPIERTISKARGQAHQPSVYVLPPSREELSKNTVSLTCLIKDFFPPDIDVEWQSNGQQEPESKYRTTPPQLDEDGSYFLYSKLSVDKSRWQRGDTFICAVMHEALHNHWTQESLSHSPGK
5.56 | canine IgGB (65) mAb with mutation Y436V (antibody, part only; not given: variable domains of unnamed mAb, not shown: another chain or arm of the molecule) constant: ASTTAPSVFPLAPSCGSTSGSTVALACLVSGYFPEPVTVSWNSGSLTSGVHTFPSVLQSSGLYSLSSMVTVPSSRWPSETFTCNVAHPASKTKVDKPVPKRENGRVPRPPDCPKCPAPEMLGGPSVFIFPPKPKDTLLIARTPEVTCVVVDLDPEDPEVQISWFVDGKQMQTAKTQPREEQFNGTYRVVSVLPIGHQDWLKGKQFTCKVNNKALPSPIERTISKARGQAHQPSVYVLPPSREELSKNTVSLTCLIKDFFPPDIDVEWQSNGQQEPESKYRTTPPQLDEDGSYFLYSKLSVDKSRWQRGDTFICAVMHEALHNHVTQESLSHSPGK
8.65 | canine IgGB (65) mAb with mutation Y436T (antibody, part only; not given: Variable domains, not shown: another chain or arm of the molecule) constant: ASTTAPSVFPLAPSCGSTSGSTVALACLVSGYFPEPVTVSWNSGSLTSGVHTFPSVLQSSGLYSLSSMVTVPSSRWPSETFTCNVAHPASKTKVDKPVPKRENGRVPRPPDCPKCPAPEMLGGPSVFIFPPKPKDTLLIARTPEVTCVVVDLDPEDPEVQISWFVDGKQMQTAKTQPREEQFNGTYRVVSVLPIGHQDWLKGKQFTCKVNNKALPSPIERTISKARGQAHQPSVYVLPPSREELSKNTVSLTCLIKDFFPPDIDVEWQSNGQQEPESKYRTTPPQLDEDGSYFLYSKLSVDKSRWQRGDTFICAVMHEALHNHTTQESLSHSPGK
5.23 | canine IgGB (65) mAb with mutation T286M (antibody, part only; not given: variable domains of unnamed mAb, not shown: another chain or arm of the molecule) constant: ASTTAPSVFPLAPSCGSTSGSTVALACLVSGYFPEPVTVSWNSGSLTSGVHTFPSVLQSSGLYSLSSMVTVPSSRWPSETFTCNVAHPASKTKVDKPVPKRENGRVPRPPDCPKCPAPEMLGGPSVFIFPPKPKDTLLIARTPEVTCVVVDLDPEDPEVQISWFVDGKQMQMAKTQPREEQFNGTYRVVSVLPIGHQDWLKGKQFTCKVNNKALPSPIERTISKARGQAHQPSVYVLPPSREELSKNTVSLTCLIKDFFPPDIDVEWQSNGQQEPESKYRTTPPQLDEDGSYFLYSKLSVDKSRWQRGDTFICAVMHEALHNHYTQESLSHSPGK
5.97 | canine IgGB (65) mAb with mutation Y436S (antibody, part only; not given: variable domains of unnamed mAb, not shown: another chain or arm of the molecule) constant: ASTTAPSVFPLAPSCGSTSGSTVALACLVSGYFPEPVTVSWNSGSLTSGVHTFPSVLQSSGLYSLSSMVTVPSSRWPSETFTCNVAHPASKTKVDKPVPKRENGRVPRPPDCPKCPAPEMLGGPSVFIFPPKPKDTLLIARTPEVTCVVVDLDPEDPEVQISWFVDGKQMQTAKTQPREEQFNGTYRVVSVLPIGHQDWLKGKQFTCKVNNKALPSPIERTISKARGQAHQPSVYVLPPSREELSKNTVSLTCLIKDFFPPDIDVEWQSNGQQEPESKYRTTPPQLDEDGSYFLYSKLSVDKSRWQRGDTFICAVMHEALHNHSTQESLSHSPGK
